This assay concerns the target EBV DNA polymerase BALF5 catalytic subunit, full-length (Epstein-Barr Virus) (UniProt P03198). The assay can be described thus: cell-based or functional assay.

Bounds are passed on as bounds.

Sequence of EBV DNA polymerase BALF5 catalytic subunit, full-length (Epstein-Barr Virus) (P03198 1-1015, tags or fused parts left off): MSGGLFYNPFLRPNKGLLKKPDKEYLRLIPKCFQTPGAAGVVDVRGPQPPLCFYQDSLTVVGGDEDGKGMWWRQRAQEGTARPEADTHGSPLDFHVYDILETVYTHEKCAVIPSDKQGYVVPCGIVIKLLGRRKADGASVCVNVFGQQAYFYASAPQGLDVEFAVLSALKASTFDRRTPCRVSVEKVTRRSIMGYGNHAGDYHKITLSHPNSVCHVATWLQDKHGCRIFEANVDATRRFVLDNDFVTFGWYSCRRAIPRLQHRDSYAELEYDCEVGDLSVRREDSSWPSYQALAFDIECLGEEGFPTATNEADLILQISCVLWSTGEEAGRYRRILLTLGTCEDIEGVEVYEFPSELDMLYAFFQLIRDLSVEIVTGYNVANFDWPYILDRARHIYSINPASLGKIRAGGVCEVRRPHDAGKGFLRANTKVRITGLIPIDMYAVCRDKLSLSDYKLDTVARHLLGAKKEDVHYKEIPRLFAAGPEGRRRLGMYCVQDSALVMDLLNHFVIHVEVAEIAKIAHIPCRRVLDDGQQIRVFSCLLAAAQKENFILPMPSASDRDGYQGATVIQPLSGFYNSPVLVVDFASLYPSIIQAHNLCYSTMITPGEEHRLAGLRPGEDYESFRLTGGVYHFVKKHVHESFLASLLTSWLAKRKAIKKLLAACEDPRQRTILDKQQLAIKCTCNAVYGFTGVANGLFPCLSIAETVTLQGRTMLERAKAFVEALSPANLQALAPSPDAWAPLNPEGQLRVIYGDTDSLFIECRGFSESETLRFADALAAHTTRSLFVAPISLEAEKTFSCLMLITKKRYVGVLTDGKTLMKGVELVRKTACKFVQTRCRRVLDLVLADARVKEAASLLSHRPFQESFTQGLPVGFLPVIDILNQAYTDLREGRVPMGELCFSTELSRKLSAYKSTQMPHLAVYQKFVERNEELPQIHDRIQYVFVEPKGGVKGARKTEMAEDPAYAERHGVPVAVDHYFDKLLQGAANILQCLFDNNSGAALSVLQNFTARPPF

“EBV BMRF1 processivity factor, full-length (from UniProt P03191 1-404)” returned a DNA polymerase elongation activity on activated calf thymus DNA at 100 mM ammonium sulfate above 100 fold.

These data come from patent US20150064747A1.
